In patent publication US8293494:

What was measured:
[1] = target: histone H3 dimethylated at lysine 9 (core histones or nucleosomes from HeLa cells), P68431
[2] = target: histone H3 monomethylated at lysine 9 (core histones or nucleosomes from HeLa cells), P68431
[3] = target: histone H3 trimethylated at lysine 9 (core histones or nucleosomes from HeLa cells), P68431

| Protein | in vitro demethylation assay, Western blot with α-dimethyl H3K9 [1] | in vitro demethylation assay, Western blot with α-monomethyl H3K9 [2] | in vitro demethylation assay, Western blot with α-trimethyl H3K9 [3] |
| --- | --- | --- | --- |
| recombinant JMJD2C (aa 12-349) (protein) PSCKIMTFRPSMEEFREFNKYLAYMESKGAHRAGLAKVIPPKEWKPRQCYDDIDNLLIPAPIQQMVTGQSGLFTQYNIQKKAMTVKEFRQLANSGKYCTPRYLDYEDLERKYWKNLTFVAPIYGADINGSIYDEGVDEWNIARLNTVLDVVEEECGISIEGVNTPYLYFGMWKTTFAWHTEDMDLYSINYLHFGEPKSWYAIPPEHGKRLERLAQGFFPSSSQGCDAFLRHKMTLISPSVLKKYGIPFDKITQEAGEFMITFPYGYHAGFNHGFNCAESTNFATVRWIDYGKVAKLCTCRKDMVKISMDIFVRKFQPDRYQLWKQGKDIYTIDHTKPT | the methylation status of mono- and dimethyl H3K9 is not altered | the methylation status of mono- and dimethyl H3K9 is not altered | Recombinant JMJD2C very efficiently demethylates trimethyl H3K9 on both core histones and nucleosomes in vitro |
| mutant JMJD2C H190A (aa 12-349) (protein) PSCKIMTFRPSMEEFREFNKYLAYMESKGAHRAGLAKVIPPKEWKPRQCYDDIDNLLIPAPIQQMVTGQSGLFTQYNIQKKAMTVKEFRQLANSGKYCTPRYLDYEDLERKYWKNLTFVAPIYGADINGSIYDEGVDEWNIARLNTVLDVVEEECGISIEGVNTPYLYFGMWKTTFAWATEDMDLYSINYLHFGEPKSWYAIPPEHGKRLERLAQGFFPSSSQGCDAFLRHKMTLISPSVLKKYGIPFDKITQEAGEFMITFPYGYHAGFNHGFNCAESTNFATVRWIDYGKVAKLCTCRKDMVKISMDIFVRKFQPDRYQLWKQGKDIYTIDHTKPT |  |  | the enzymatically impaired mutant JMJD2C H190A fails to demethylate |
